Reference: patent publication US20160060347A1 (MorphoSys, published 2016)

T1: human CXCR2 (human, UniProt P25025 1-360)
T1 construct: Expressed on Flp-In CHO cells (FACS, Fab-ZAP, ADCC, CDC) or on bought PathHunter CHO cells (beta-arrestin assay); the construct in the PathHunter cells is not described; also called chemokine receptor CXCR2; CXCR2 CHO Flp-In cells
T1 sequence: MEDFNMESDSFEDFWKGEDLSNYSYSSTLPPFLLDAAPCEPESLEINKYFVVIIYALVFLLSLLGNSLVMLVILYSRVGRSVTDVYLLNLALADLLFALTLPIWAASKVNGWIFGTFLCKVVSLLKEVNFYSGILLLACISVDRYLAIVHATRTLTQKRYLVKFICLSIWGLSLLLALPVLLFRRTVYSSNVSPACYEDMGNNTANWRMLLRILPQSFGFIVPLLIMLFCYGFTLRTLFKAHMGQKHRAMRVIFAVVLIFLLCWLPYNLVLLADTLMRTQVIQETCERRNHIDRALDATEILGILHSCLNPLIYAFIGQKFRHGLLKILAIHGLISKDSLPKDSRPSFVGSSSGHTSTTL


What was measured:
[1] = target: T1, human CXCR2; assay: FACS, CXCR2 Flp-In CHO cells, IgG1
Description: (§1) Human CXCR2-expressing Flp-In™ CHO cells were harvested at ˜80% confluence washed once with PBS (Gibco, Cat #14190-094) and detached using Versene (Invitrogen, Cat #15040-033). Subsequently, cells were counted and centrifuged at 250×g for 5 min at 4° C. Afterwards, cells were diluted in Superblock (Thermo Fisher Perbio Science, Cat #37515) to a cell concentration of 2E+05-1E+06/mL and 100 μL/well were transferred to 96-well microtiter plate (Nunc, Cat#163320). Cells were once centrifuged, supernatant discarded and antibodies added at 1 μg/mL (unless stated otherwise), incubated for 1 h at 4° C. and washed twice with FACS buffer (PBS/3% FCS/0.02% NaN3). Binding of anti-CXCR2 antibodies was detected by incubation of Phycoerythrin-conjugated anti-human IgG (Dianova, Cat #109-116-097) for 1 h at 4° C. Samples were subsequently measured using FACS Array (Becton Dickinson).
All six Fabs were converted into IgG1 format and were expressed in a human cell line and purified via protein A chromatography for further analysis. All antibodies were tested for specific CXCR2 binding on CXCR2-expressing CHO Flp-In™ cells by FACS. Additionally, inhibition of CXCR2 mediated beta-arrestin signaling by the antibodies was analyzed. Furthermore, IC₅₀ concentrations for cytotoxicity of respective antibodies via secondary immunotoxin in a Fab-ZAP assay using CXCR2 expressing CHO Flp-In™ cells were determined together with the capability of the antibodies to induce complement-dependent cellular cytotoxicity (CDC) and antibody-dependent cellular toxicity (ADCC). Respective experimental settings as outlined in Example 3 were used (data of one representative experiment are shown).

[2] = target: T2, N-terminal peptide aa1-48, BSA-coupled (human; bovine, coupled to carrier protein BSA; C-terminal cysteine introduced to enable coupling); assay: ELISA, coated peptide-BSA, Fab
T2 construct: also called CXCR2 aa1-48 BSA
Description: (§2) 384-well Maxisorp plates (Nunc; Cat. #460518) were coated with respective CXCR2 and control peptides coupled either to BSA or Transferrin (TRF) at 1-5 μg/mL and incubated o/n at 4° C. […] After three washing steps, antibodies were added at 5-10 μg/mL and titrated in some experiments. Antibodies were incubated 1 h at room temperature and plates were subsequently washed. Binding of anti-CXCR2 antibodies was detected by using alkaline phosphatase-conjugated anti-human IgG, (Dianova, Cat #109-055-097). AttoPhos fluorescence substrate (Roche, Cat #1484281) was added according to instructions of the manufacturer and fluorescence was measured (excitation at 430 nm, emission at 535 nm) using a microplate reader.

[3] = target: T3, ECL3 peptide aa273-295, BSA-coupled (human; bovine, coupled to carrier protein BSA; C-terminal cysteine introduced to enable coupling); assay: ELISA, coated peptide-BSA, Fab
T3 construct: also called CXCR2 aa273-295 BSA; peptides representing the extracellular domain 3
T3 sequence (peptide, as listed by the source limits assumed, chain 1 of 2): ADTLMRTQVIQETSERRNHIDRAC
T3 sequence (P02769 25-607 limits assumed, chain 2 of 2): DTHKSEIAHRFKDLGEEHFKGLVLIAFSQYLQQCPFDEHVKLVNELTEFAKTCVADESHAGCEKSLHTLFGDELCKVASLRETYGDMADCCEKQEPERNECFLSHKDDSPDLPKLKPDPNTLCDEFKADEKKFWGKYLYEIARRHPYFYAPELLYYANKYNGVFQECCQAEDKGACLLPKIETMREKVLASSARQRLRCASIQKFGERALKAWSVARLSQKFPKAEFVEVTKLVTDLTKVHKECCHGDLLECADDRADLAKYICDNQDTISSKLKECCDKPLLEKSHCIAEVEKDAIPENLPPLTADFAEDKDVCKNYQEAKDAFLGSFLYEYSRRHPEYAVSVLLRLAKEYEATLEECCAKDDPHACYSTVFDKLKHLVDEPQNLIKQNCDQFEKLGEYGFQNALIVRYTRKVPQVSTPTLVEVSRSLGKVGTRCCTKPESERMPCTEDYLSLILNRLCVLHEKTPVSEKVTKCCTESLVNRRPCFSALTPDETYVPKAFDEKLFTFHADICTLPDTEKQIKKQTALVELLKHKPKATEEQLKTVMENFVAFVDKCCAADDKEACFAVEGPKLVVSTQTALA
Description: as §2

[4] = target: T4, hu_CXCR2_N-term (1-17)-BSA (human; bovine, coupled to carrier protein BSA; C-terminal cysteine introduced to enable coupling); assay: ELISA, coated peptide-BSA, Fab
T4 construct: Synthetic linear peptide chemically coupled to the carrier; also called CXCR2_aa1-17_BSA; CXCR2 aa1-17 BSA
T4 sequence (P02769 25-607 limits assumed): as the sequence (P02769 25-607 limits assumed, chain 2 of 2) above
Description: as §2

[5] = target: T1, human CXCR2; assay: FACS, CXCR2 CHO Flp-In cells, Fab
Description: as §1

Row | Binder | EC50 [1] [nM] | binding result [2] | binding result [3] | binding result [4] | binding result [5]
1 | CX2-Mab #2 (IgG1 format) (antibody, V domains shown, Fab converted into IgG1 format, expressed in a human cell line, protein A purified) VH: QVQLVQSGAEVKKPGASVKVSCKASGYTFSRYAMHWVRQAPGQGLEWMGVINPYNGNTRYAQKFQGRVTMTRDTSISTAYMELSRLRSEDTAVYYCARGSHIQAGAFDYWGQGTLVTVSS VL: DIQMTQSPSSLSASVGDRVTITCRASQGINNRLNWYQQKPGKAPKLLIYDGSSLQSGVPSRFSGSGSGTDFTLTISSLQPEDFATYYCQQYIHFPVTFGQGTKVEIKR | > 667 |  |  |  | 
2 | CX2-Mab #15 (Fab, V domains shown) VH: EVQLLESGGGLVQPGGSLRLSCAASGFTFSRYWMSWVRQAPGKGLEWVSVISYSGSETYYADSVKGRFTISRDNSKNTLYLQMNSLRAEDTAVYYCARGRAYGYFDPWGQGTLVTVSS VL: DIVLTQPPSVSGAPGQRVTISCSGSSSNIGKKTVSWYQQLPGTAPKLLIYRNNQRPSGVPDRFSGSKSGTSASLAITGLQAEDEADYYCGSTTSSHLYVFGGGTKLTVLG |  | binds | binds | binds | binds
3 | CX2-Mab #17 (Fab, V domains shown) VH: EVQLLESGGGLVQPGGSLRLSCAASGFTFSSYSMSWVRQAPGKGLEWVSYISSAGSNTYYADSVKGRFTISRDNSKNTLYLQMNSLRAEDTAVYYCARGRAYGYFDYWGQGTLVTVSS VL: DIVLTQPPSVSGAPGQRVTISCSGSSSNIGSNTVYWYQQLPGTAPKLLISSNTKRPSGVPDRFSGSKSGTSASLAITGLQAEDEADYYCQVTDFRLHHVVFGGGTKLTVLG |  | binds | binds | binds | binds
4 | CX2-Mab #10 (Fab, V domains shown) VH: EVQLLESGGGLVQPGGSLRLSCAASGFTFSRYWMSWVRQAPGKGLEWVSVISYSGSETYYADSVKGRFTISRDNSKNTLYLQMNSLRAEDTAVYYCARGRAYGYFDPWGQGTLVTVSS VL: DIVLTQPPSVSGAPGQRVTISCSGSSSNIGKKTVSWYQQLPGTAPKLLIYRNNQRPSGVPDRFSGSKSGTSASLAITGLQAEDEADYYCSSTTSSSRSVVFGGGTKLTVLG |  | binds | binds | binds | binds
5 | CX2-Mab #12 (Fab, V domains shown) VH: QVQLLESGGGLVQPGGSLRLSCAASGFTFSRYWMSWVRQAPGKGLEWVSVISYSGSETYYADSVKGRFTISRDNSKNTLYLQMNSLRAEDTAVYYCARGRAYGYFDPWGQGTLVTVSS VL: DIVLTQPPSVSGAPGQRVTISCSGSSSNIGKKTVSWYQQLPGTAPKLLIYRNNQRPSGVPDRFSGSKSGTSASLAITGLQAEDEADYYCQSTDSTHRMAVFGGGTKLTVLG |  | binds | binds | binds | binds
6 | CX2-Mab #16 (Fab, V domains shown) VH: EVQLLESGGGLVQPGGSLRLSCAASGFTFSRYWMSWVRQAPGKGLEWVSVISYSGSETYYADSVKGRFTISRDNSKNTLYLQMNSLRAEDTAVYYCARGRAYGYFDPWGQGTLVTVSS VL: DIVLTQPPSVSGAPGQRVTISCSGSSSNIGKKTVSWYQQLPGTAPKLLIYRNNQRPSGVPDRFSGSKSGTSASLAITGLQAEDEADYYCGSTGYRGLYVFGGGTKLTVLG |  | binds | binds | binds | binds
7 | CX2-Mab #3 (IgG1 format) (antibody, V domains shown, Fab converted into IgG1 format, expressed in a human cell line, protein A purified; also called parental) VH: EVQLLESGGGLVQPGGSLRLSCAASGFTFSSYWMSWVRQAPGKGLEWVSVISYSGSETFYADSVKGRFTISRDNSKNTLYLQMNSLRAEDTAVYYCARGRVGYAFDYWGQGTLVTVSS VL: DIVLTQPPSVSGAPGQRVTISCSGSSSNIGVNYVNWYQQLPGTAPKLLIYSNNQRPSGVPDRFSGSKSGTSASLAITGLQAEDEADYYCQSRASGFYSVVFGGGTKLTVLG | 0.2 |  |  |  | 
8 | CX2-Mab #4 (IgG1 format) (antibody, V domains shown, Fab converted into IgG1 format, expressed in a human cell line, protein A purified; also called parental) VH: EVQLLESGGGLVQPGGSLRLSCAASGFTFSSNGMSWVRQAPGKGLEWVSAISSSGSKTYYADSVKGRFTISRDNSKNTLYLQMNSLRAEDTAVYYCARGYGFDVWGQGTLVTVSS VL: DIVLTQPPSVSGAPGQRVTISCSGSSSNIGVNIVNWYQQLPGTAPKLLIYSTSNRPSGVPDRFSGSKSGTSASLAITGLQAEDEADYYCATRDGISKSVVFGGGTKLTVLG | 0.1 |  |  |  | 
9 | CX2-Mab #1 (IgG1 format) (antibody, V domains shown, Fab converted into IgG1 format, expressed in a human cell line, protein A purified; also called parental) VH: QVQLVQSGAEVKKPGSSVKVSCKASGGTFSSYAISWVRQAPGQGLEWMGGIIPIVGEAKYAQKFQGRVTITADESTSTAYMELSSLRSEDTAVYYCARDSSGYDGYYAFAYWGQGTQVTVSS VL: DIVLTQPPSVSGAPGQRGTISCSGSSSNIGSSSVNWYQQLPGTAPKLLIYRNNQRPSGVPDRFSGSKSGTSASLAITGLQAEDEADYYCGATDFSANQVVFGGGTKLTVLG | 0.4 |  |  |  | 
10 | CX2-Mab #6 (IgG1 format) (antibody, V domains shown, Fab converted into IgG1 format, expressed in a human cell line, protein A purified) VH: EVQLLESGGGLVQPGGSLRLSCAASGFTFSSYTMSWVRQAPGKGLEWVSAIHSSGSSTYYADSVKGRFTISRDNSKNTLYLQMNSLRAEDTAVYYCARVPAYYGFDHWGQGTLVTVSS VL: DIELTQPPSVSVSPGQTASITCSGDSLGAFYVHWYQQKPGQAPVLVIYRTNNRPSGIPERFSGSNSGNTATLTISGTQAEDEADYYCASYASRNRVFGGGTKLTVLG | 0.1 |  |  |  | 
11 | CX2-Mab #18 (Fab, V domains shown) VH: EVQLLESGGGLVQPGGSLRLSCAASGFTFSRYAMSWVRQAPGKGLEWVSVISSDGGTTYYADSVKGRFTISRDNSKNTLYLQMNSLRAEDTAVYYCARIFSYALDYWGQGTLVTVSS VL: DIVLTQPPSVSGAPGQRVTISCSGSSSNIGSYYVNWYQQLPGTAPKLLIYRNSKRPSGVPDRFSGSKSGTSASLAITGLQAEDEADYYCSSYDAHSDSVVFGGGTKLTVLG |  | binds | binds | binds | binds
12 | CX2-Mab #19 (Fab, V domains shown) VH: EVQLVQSGAEVKKPGESLKISCKGSGYSFTSYWISWVRQMPGKGLEWMGIIDPANSYTRYSPSFQGQVTISADKSISTAYLQWSSLKASDTAMYYCARVERRPRYYGSNYYGMDVWGQGTLVTVSS VL: DIVLTQPPSVSGAPGQRVTISCSGSSSNIGSNYVNWYQQLPGTAPKLLIYGNSNRPSGVPDRFSGSKSGTSASLAITGLQAEDEADYYCSVRDSEGRYVVFGGGTKLTVLG |  | binds | binds | binds | binds
13 | CX2-Mab #5 (IgG1 format) (antibody, V domains shown, Fab converted into IgG1 format, expressed in a human cell line, protein A purified) VH: EVQLLESGGGLVQPGGSLRLSCAASGFTFNSNAMSWVRQAPGKGLEWVSFISYSGSHTYYADSVKGRFTISRDNSKNTLYLQMNSLRAEDTAVYYCARYTRFLSRPAFDPWGQGTLVTVSS VL: DIVLTQPPSVSGAPGQRVTISCTGSSSNIGAGYDVHWYQQLPGTAPKLLIYYNSKRPSGVPDRFSGSKSGTSASLAITGLQAEDEADYYCGAYDRKMNSYVFGGGTKLTVLG | 17.7 |  |  |  | 
